For 47 sequences, protease stability score results are on record in the NTF2 design screens of Basanta et al. (2020).

The data set is described as follows: protease stability score; higher = more stable; yeast display proteolysis, trypsin and chymotrypsin.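 Also: log10 excess protease needed over predicted unfolded state with 0 meaning unfolded.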
In the case of “DERFRRLVHSFIQALHTNNPEEIKELFDPNARMTIGDKQVHGQEDISRLIDRERKEMRLEIKTFSVEDKGDTADVKMKAVWDVNGKPNRHSYDLNFVDHNGKIRSLHARMDSQYLREVKS”, the protease stability score was -0.074.

With “DERHAHTVVKKIIDALHTGDEDTLRHLADKDVRLQVGEKEVHGREEFAKEMSKFHKRVDHMEIKDVTNTGDHASVKYSAKFDGKTFNARADLVVHNGKLKKMHIDPERQKQMDS”, the protease stability score is 0.535.

“DERHEAEKFAQHWMEVWKKGNHTEISKLIDENARVEVGDQKYHGRSQVKTRARQEVERADHVDYTIRSVKVTGNRIDINAQQVFRVNGTEDDQTRKIVLRRQGDKVVVQSIQAG” returned a protease stability score of -0.159.

For the sequence “DERHIHELVKNMQTNNFEEIKKQLDENVRVVVGDTVYHGREQASKALEDMKRMADRIRYTRVDFKGNKVRIDVVMNINGHNLKMVITVVVQNGRIKELVFTARNDEVKTRLDHAIR”, the protease stability score worked out at 1.13.

In the case of “DERHNKQWNKELIKIWTDGDHKKFSEMLDKDVQIQVGDKEYHGREEIVRQYKTLMDRADHFEVKRYEVKGNDITIIFTFQVNGRRDQVRVVFVIENGHVKKITMDKK”, the protease stability score turned out to be 1.42.

Turning to “DERIKDTVDQMWSAVKNNDPDQMNENFDPNARIEVGDKEVHGRDTLKKWQDTQNKRSNKDMESVSVKVDGDKVDIEAESKFTNNGQPHTNKMTASARLENGRFKEVHIDSRK”, the protease stability score is -0.513.

On to “DERIRKEHTKRLKAEQTGDPKSAHDMADENVRVKVGDKDLTGMDNIVKTIHEEKKDQRNQLDVHSIELHGEKVKIEMQVVIEHNGRPHKTEQYLVFRADNGKLKRMEQHDSG”, for which the protease stability score came to 0.023.

In the case of “DERKAEHWLDQLAQMLRTGDESHVARLMDENVNVVIGDQRFHGSDEARKAIRQLKERIDHLEVKDMKNEGNKMVVKAVADVNGRTHHLDVQMEFKNGRITRASFDPTAIKQAEG”, the protease stability score is 1.14.

“DERKAEQNARDLAQALITGDPKRVMDLADENAEVQYGDKTYSGRERLDEVVRSFRRAVDHVDVDDIKEKGDHLRIKMTIQHNGQTRQVTLDIRVKNGKAEQIKFDFTDKDWYRRAIK” came in with a protease stability score of 0.344.

For “DERKAVKHLNTMMRLINTGNPSEAADQADKDVKVHIGDKDVHGRERASDLIKKLRDRVDTIKVKSIEERPNHLSAKIDLEHNGRTHTVVFIIHAENGKVTSMSVKTD”, the protease stability score was -0.349.

“DERKEAKEFADRIVKIIQTNNQDELEKNADPDVRVDVGDKQVHGREQLQDELKKLRTRADHVEVKIQDFKVHNGSVTVQMTIVYVVNGQKHKDERVYHAEIHNGRVKLKSARQK” returned a protease stability score of 0.767.

The sequence “DERKEAKKWLDRLNKALHTGDSDKLKDMVDKDVRFNIGDKEIHGREQYVKHVQTRAEQIDDVQIHIHSIHVSGDEIVLTYHVVYNVNGRQESDVFNLVMVKNNGRLVVRSVTKG” showed a protease stability score of -0.012.

“DERKEMQKHFDRFVTALRENNPDQLREMADPDAKVRIGDKTLHGRDEVVHYLQLLAERADHISFDVKQFDVHNGVAHVDLRMRFTVNGQERHKDMIFVLNEVNGTVVIVQVQDK” came in with a protease stability score of 1.72.

Take “DERKIEHAQRILKHNDKHKLQNLFDKNARLEIGDTTFTGRERAQHWARRLYQQADHFEVKSVDNNPNDLTVELVVRVNGHDIHFQFRFRIKNGRITSFQVDYTDEDDERKMKDVDR”: the protease stability score was determined as 0.369.

Sequence “DERKKDRMRELFEAWKTGDEHTAEKMLDKDAKIDVGDHRVQGREQHSTDVRRRKEEIRLRVDIDSIHIHNGRVSVEYKEENNHNGKPDTKNARVDFNMHNGRVQEQKQSNES” returned a protease stability score of -0.35.

In turn, “DERKKVEDVARHWVEAFKEGDKDRLTSLMDENVTVKVGDKQVHGSEELLEDMTNKIKQHDHVDAKILSVTFHGDEAEVDVEVRLNHNGKNRHDRYVMVMRVHNGTLRLKKLTQK” had a protease stability score of 1.24.

As for “DERKLATRHAHTLDRILRTGDEERYVDMADKDVKFDVGDRKYKGRHELHKLAKEEQKKADHLQLNYKHITAHNGRVDMDVVVVQVHNGQKRQTNVRYSEEIHNGNVIVQSATEK”, the protease stability score was -0.355.

In turn, “DERKQENVAKRVIRALQTGDSDMMERLVDPNAEVRYGDKRLRGREELREFVTTFKRAVDHLSFDRFEVHNGRAVANAKLNVNGRVMHVRIIVNFHDGRVTHIQIDVTDESQATRARS” registered a protease stability score of 0.643.

For the sequence “DERKQHEVAEKVAKNFVDGNPSEFVKNMDPNAEVVIGDKTVTGREDIHRLVKDFHDKIDHIELKDLKVKNGRIEIIFQADNNGHKRQYRADVKANNGRMTTFEVREQ”, the protease stability score amounted to 0.927.

Sequence “DERKRAEKALNEWQRMWKYGNEEDFQKLADENVHFKYGDKTYRGREKMRKWVKEVLDSVDHVEVRIVSLHVRGDKITVRIRIYMEHNGRRTSFEYTMQLVDNNGHIVIVRFEQN” gave a protease stability score of 0.203.

“DERKRAKKALDDLKHAMHSNDPDKQKELMDENVELKYGDRHVNGREQANQHAEEHFERADHLDQKIQTWDIHNGKVSVTFTMTIEFNGRRENIQVQVTFDTVDGRLRIRTAREK” gave a protease stability score of 0.525.

In the case of “DERKRATEIAEQIQTILRTGNPKDMRRMADEDVKVDVGDQRIHGRDQLATTLHKLRKRADHIDIKIVSVNAQGDKFVVRQRVRETVNGRVRTFEFVMVLRVHNGREVVKSRHQS”, the protease stability score is 0.225.

As for “DERKSAENFFHTLVKVMETGDEDKARKMFDENADAEVGDTEYHGREQLSKYMMTLVKNIDHIRLDLRDMHIEGDKIDIHADVEYRVNGQRTTNKLTVDVEIDNGRNKAQDIKFK”, the protease stability score is 0.214.

For the sequence “DERKVDVARNVAKAILTNDPDRAMSMVDKDVTVVIGDKEINGHEDFREHIEKQSKEAKLDMRSVDADNRGDKAVLTLDYQIDYNGKPMRDTQTIEVHVTNGRVKELRVRVDESLKRDLKS”, the protease stability score was -0.28.

With “DERLADQVVELLHVMEDGDEKRVDQLIDKDVKFKVGDKDYHGDETARRRAKNLRDQMRIEYDLKDYRTNGDNAILNAEVRMNINGQPYSHHVKIVVRARNGKVKHLQMSFDEETQKKVDQ”, the protease stability score was found to be 0.909.

Turning to “DERLAKQVLTMMRNERTGNEHEVDKYVDPNARFQVGDQEIHGKEELRKEVSRRRNEMRIDFRVEDMKVHGDKVHLSFKNMKNHNGRPESFRATATVHVHNGTVKSVDIKTTK”, the protease stability score was -0.453.

“DERLEDKMRKFLEVLRTGDEKKLRDLADPNVRFDIGEKKYRGRDEAVREYKRMRDEIRFEIKIRSLEAQGNKVDVTFEMTYDHNGKPKHNVVKLVFEQHNGKLKQLKVKSDK” returned a protease stability score of 0.596.

“DERLHKQIERLFEQLNTGDEDKYVEYADPNARINVGDKNVHGRDQIRHMIRKENQEIRVEYEVKDIKASNGRARVDATVENEENGRPHTNRIDLVINVHNGRAKEIELRVPEDLLRTMKS” yielded a protease stability score of -0.131.

With “DERLKEQVKRLWEALKENDHDELSKLVDKDAHIVVGDKEVHGRENFMTEMATELSEIRIDYKRLHIDAQGDTADVEVDVEQEHNGQPRRDVKRVEFEYENGRLVKMNVQDNG”, the protease stability score came to 0.438.

For the sequence “DERLLHEFQKNVENNNWDKLSELVDEDAKIKYGDKTITGRESLDRMFTQLKRQVDHVDIESVHIDGDKVHVDLRIRVNGHSVRFIMTAEFSNGRIKSMKIEVTSEEQQDHLNEQLS”, the protease stability score was found to be 1.19.

In the case of “DERLREQLNRFHKLLEKNNPEKLVEQLDPNAEFEVGDKQYHGREQIEDWQRRLAKRQRFSRDFKSIDASNGNVRATFRVVITHDGKPDDYLAVMHFQVKNGKFKRFVIKRNQ”, the protease stability score was 0.291.

As to “DERMDDTLRRLVERGDFHKIAENADPNVRMQVGNKVFHGREEVRRAAERWQNQVDHYQVDSVRVHNGHVSAHVQATVNGQRIRFTIKIDVQGDKVQRMEIEFTSEEQKKLQDEAVE”, the protease stability score was determined as 1.41.

For the sequence “DERMKKLAEQIVKARRTGDEKQQKELFDEDAHVQIGDKTVHGKENQIETMKKRRDEIRVEIRINSLSVNNGKADISLEQTDDKNGTPKTDVVRATVHATNGRVKEVRYKHDG”, the protease stability score was -0.156.

With “DERNERVFHHFVEAISFNDPQQARRNADKDVKFDVGEKVLHGREEWDKQMEHNKKHMRQDMRVKEVSTSGDKVTARVEQEHNHNGKPSTRDVKMSVEINNGKIKSFRLTTVS”, the protease stability score was -0.129.

For “DERNIERARKWWEALQENNPDQARKLMDKDVTFTYGDKTYHGREDIAKDIHRRLENMRVEIKSMTLEDHNGRVDAQVDLVVDVNGQPRQVTLDAKVNVENGRVKEFNVQFDEQLRHDIQK”, the protease stability score worked out at 0.132.

“DERNKKVLRQFMHAQMRGNPEKAKKLADPNAKFQVGDKTVHGMDEWVRQLDRKKKQIRFEVRVDSVRVHGDNVTMHVEYRATYNGKPYSDKVDYSARLHNGKITKLSAEMDPEFQRELDT” returned a protease stability score of 0.296.

On to “DERNKRRFDEFERARKTGDPDRMKELADPNAKLDVGNKTITGMDEIVRQLKHEQDKIEIDIKFDRITVQGNNLRAEYHEEYNVNGKPFHDKVVLEVQFDNGKIRELKLRVDPEKQDERRT”, for which the protease stability score is -0.003.

Regarding “DERNLHVANEFWKVLTDGDPRRLMELVDPNAKIQYGDKTITGREEIRKKAEKDTKKSRFEVQVQDIRVTGDTANIHAVFNEDHNGQPSQDFYVVTMAMNGDKIRFMIQRKSK”, the protease stability score was determined as 0.483.

As for “DERNLRVVKHFWHAVRTGDPEEVKRQADKHVRVRIGDKHIEGRETLAHEVREEKNQLENDIQIRDIKVQGDRVHMRVVVVFNIDGRPQSVQITVEAKAHNGKLQSMSQEVPEEVLHEIEK”, the protease stability score was 0.021.

The sequence “DERNNEFAKHFIEVLNQGDWKRLNEMLDPNVKVEIGDTTIHGRENFSRNVKQDLDHLRQEFHITSMDASGNKVEVRADVINRDNGKPREFKMKMEIRFHNGRVKEIKLDHDG” showed a protease stability score of 1.53.

“DERNNKQADQFLRDMEKNDEHKLRKLADENVKFKIGDKVFRGWHDAVTEIATRIREMRVNVHRYDVKTHNGRVNLEIHQTAEYNGQPLNFSYIVIMEYQNGRLVRVNIRVSEEELKTMTQ” came in with a protease stability score of 0.475.

For “DERNQKEVADKMYTAFRHGDPRKINKLADKDVTARYGDKVVSGRDDMVRQIDEIRKSIDHMSITSIEVHNGKADATLRFVVNGRDLQMKLVIVIHNGKVKHLSVQFRDDEQKKVLER”, the protease stability score was -0.174.

For the sequence “DERNQRNLEKMLKAQERGNPDLLEELVDKNVKIEVGDKSVHGREELHRQQDRRRKQATLRYDDLRMKVSGNKVRVDMKFQVNHDGKPEKATADATYEFDNGKLKHVSVRVRQ”, the protease stability score is -0.06.

In turn, “DERNREIVEEYFKAIKQGDEDRYKQMVDPNVHVEVGDRNYHGREHQARWMHRLRKHMRLVFNIRSIDVSGDKVKVKLDYEEEHNGEPRTNKMTVEFKFHNGKILKIKIQTRQ” gave a protease stability score of 2.08.

In the case of “DERNSELLKKVQEAWDHGDPRKLDEQMDPNAKVNVGDKNLHGKEQLRNTLEEDTRHSRVRVDYDSVTDHNGRVRASATFQDVINGKPVRDTFDFVAEVNNGKMKMLKVRVPEDNKRKLKR”, the protease stability score stood at 0.022.

With “DERQENNARKFFTAYLKGDEHKLTELMRDDVRLKIGDKEIHGRETALKTIHTLRRRQRIHIQVDNIEVDENHVEVHAKIEWEHNGQPDSQKVRIDIKFHNGRINYLQMDLRG”, the protease stability score amounted to 1.59.

On to “DERQIEQLKRYLEALKTGDKEKIKELLDPNARIVYGDKEVKGRENIAEQVKKRKDDSRYDWTSVDVKTSGDKLVMTARKVNNRNGRPHERQFTADIKIKNGRMQHLQFDSTG”, for which the protease stability score is -0.323.
